Paper PMC6613789

Target: apoE4 (UniProt P02649 19-317, C130R)
Assay: EMSA

Chain of apoE4 (P02649 19-317 C130R): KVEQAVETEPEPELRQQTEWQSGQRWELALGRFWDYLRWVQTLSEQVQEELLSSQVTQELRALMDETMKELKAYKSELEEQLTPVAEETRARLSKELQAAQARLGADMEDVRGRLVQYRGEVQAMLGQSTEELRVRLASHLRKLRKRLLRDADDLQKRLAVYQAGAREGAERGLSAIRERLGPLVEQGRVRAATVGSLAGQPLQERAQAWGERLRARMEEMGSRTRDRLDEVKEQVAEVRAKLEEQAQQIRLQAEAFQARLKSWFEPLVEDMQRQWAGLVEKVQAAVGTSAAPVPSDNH

B1: CLEAR EMSA probe (dsDNA)
DNA 1: GTAGGTCACGTGACCGGG
DNA 2: CCCGGTCACGTGACCTAC
binding result: binds
